pKd: −log10 of the molar value.
Columns and labels:
[1] = biological target: CD3 antigen (surface plasmon resonance); assay: SPR, Biacore, two state reaction model
[2] = biological target: CD3 on T cells (UniProt P07766); assay: FACS on T cells, 1 ug antibody, PE goat anti-human secondary; panel labelled CONTROL
[3] = biological target: CD3 on T cells (UniProt P07766); assay: FACS on T cells, 0.1 ug antibody, PE goat anti-human secondary; panel labelled CONTROL
[4] = biological target: CD3 on T cells (UniProt P07766); assay: FACS on T cells, 0.01 ug antibody, PE goat anti-human secondary; panel labelled CONTROL
[5] = biological target: CD3 on T cells (UniProt P07766); assay: FACS on T cells, negative control antibody, amount not given, PE goat anti-human secondary; the same row stands in all three tables of the figure
[6] = biological target: human chondroitin sulfate proteoglycan 4 (CSPG4) on cells (human) (UniProt Q6UVK1); assay: FACS on M14 cells, negative control antibody, amount not given, PE goat anti-human secondary; the same row stands in all three tables of the figure
human chondroitin sulfate proteoglycan 4 (CSPG4) on cells (human), sequence (Q6UVK1 30-2322 limits assumed): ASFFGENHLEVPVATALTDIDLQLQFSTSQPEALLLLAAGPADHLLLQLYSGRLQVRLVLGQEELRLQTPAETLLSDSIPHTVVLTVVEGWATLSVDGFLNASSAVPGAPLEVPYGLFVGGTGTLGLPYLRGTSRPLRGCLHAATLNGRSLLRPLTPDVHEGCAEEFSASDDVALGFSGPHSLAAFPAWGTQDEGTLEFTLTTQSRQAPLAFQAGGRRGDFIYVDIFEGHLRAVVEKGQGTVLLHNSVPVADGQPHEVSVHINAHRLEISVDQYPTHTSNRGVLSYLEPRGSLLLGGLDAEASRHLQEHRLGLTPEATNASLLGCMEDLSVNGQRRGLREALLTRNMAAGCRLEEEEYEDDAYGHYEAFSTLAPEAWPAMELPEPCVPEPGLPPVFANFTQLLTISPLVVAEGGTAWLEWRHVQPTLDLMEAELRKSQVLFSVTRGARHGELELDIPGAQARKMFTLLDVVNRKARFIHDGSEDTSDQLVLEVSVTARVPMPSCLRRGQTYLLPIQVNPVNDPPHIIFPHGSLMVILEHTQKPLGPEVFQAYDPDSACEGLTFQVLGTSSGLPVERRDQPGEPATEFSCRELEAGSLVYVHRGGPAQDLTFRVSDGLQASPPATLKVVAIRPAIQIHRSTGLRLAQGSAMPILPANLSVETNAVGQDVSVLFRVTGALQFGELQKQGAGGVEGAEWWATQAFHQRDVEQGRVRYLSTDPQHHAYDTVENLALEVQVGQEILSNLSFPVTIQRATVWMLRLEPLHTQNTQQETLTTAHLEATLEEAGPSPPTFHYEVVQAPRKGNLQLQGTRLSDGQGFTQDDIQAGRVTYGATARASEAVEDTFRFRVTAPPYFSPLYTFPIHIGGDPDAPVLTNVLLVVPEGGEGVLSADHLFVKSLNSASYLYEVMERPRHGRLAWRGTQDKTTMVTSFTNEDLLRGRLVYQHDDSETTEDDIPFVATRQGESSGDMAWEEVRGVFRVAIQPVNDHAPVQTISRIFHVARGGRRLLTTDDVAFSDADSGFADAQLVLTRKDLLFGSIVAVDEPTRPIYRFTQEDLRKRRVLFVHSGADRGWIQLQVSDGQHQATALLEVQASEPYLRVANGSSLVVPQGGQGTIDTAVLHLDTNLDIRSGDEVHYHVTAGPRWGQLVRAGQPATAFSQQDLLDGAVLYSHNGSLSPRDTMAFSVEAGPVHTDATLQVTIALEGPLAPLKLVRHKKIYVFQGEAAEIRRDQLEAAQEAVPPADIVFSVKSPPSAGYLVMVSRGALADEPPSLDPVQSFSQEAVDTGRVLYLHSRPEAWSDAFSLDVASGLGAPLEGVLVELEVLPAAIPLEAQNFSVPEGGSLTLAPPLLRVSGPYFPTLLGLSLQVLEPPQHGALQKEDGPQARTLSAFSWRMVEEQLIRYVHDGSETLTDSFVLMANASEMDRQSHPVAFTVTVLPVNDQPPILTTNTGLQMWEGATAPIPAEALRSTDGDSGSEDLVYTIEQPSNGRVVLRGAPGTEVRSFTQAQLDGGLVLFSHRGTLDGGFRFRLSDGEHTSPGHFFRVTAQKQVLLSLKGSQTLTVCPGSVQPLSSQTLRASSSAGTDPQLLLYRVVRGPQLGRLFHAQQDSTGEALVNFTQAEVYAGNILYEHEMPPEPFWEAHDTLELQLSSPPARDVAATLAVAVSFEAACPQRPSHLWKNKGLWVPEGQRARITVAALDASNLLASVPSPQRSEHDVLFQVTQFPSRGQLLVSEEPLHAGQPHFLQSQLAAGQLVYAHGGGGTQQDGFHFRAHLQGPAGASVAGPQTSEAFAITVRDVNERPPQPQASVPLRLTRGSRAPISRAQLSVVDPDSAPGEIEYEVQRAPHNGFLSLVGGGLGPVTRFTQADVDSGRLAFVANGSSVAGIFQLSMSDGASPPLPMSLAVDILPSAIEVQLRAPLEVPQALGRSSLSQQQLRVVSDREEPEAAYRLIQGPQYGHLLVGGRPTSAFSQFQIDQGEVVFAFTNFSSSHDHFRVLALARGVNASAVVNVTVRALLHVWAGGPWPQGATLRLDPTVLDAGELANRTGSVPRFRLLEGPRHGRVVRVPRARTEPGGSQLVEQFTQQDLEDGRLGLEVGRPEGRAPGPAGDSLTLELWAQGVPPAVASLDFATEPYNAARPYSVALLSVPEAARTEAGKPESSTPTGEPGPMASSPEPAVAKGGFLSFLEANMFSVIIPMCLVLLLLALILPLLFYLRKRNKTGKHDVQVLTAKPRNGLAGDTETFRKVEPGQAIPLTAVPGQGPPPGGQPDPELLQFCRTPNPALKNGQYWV

CD3 on T cells, sequence (P07766 23-207, chain 1 of 3): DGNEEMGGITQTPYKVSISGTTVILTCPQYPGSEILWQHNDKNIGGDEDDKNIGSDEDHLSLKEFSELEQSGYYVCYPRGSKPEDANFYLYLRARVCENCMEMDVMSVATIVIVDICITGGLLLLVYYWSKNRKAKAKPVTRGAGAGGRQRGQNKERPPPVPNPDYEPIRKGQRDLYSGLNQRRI
CD3 on T cells, sequence (P09693 23-182, chain 2 of 3, further chain): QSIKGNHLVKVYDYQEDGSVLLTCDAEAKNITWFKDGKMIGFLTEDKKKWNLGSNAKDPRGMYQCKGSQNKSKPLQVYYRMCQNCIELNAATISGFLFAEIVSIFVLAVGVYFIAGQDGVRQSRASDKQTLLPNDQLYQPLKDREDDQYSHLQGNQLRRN
CD3 on T cells, sequence (P04234 22-171, chain 3 of 3, further chain): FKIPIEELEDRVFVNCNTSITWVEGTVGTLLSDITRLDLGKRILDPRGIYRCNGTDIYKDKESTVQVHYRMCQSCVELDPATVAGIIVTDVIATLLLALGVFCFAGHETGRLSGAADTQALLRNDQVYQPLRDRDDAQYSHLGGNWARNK

| Substance | pKd [1] | koff [1] | kon [1] | GEOMETRIC MEAN : FL2-H [2] | GEOMETRIC MEAN : FL2-H [3] | GEOMETRIC MEAN : FL2-H [4] | GEOMETRIC MEAN : FL2-H [5] | GEOMETRIC MEAN : FL2-H [6] |
| --- | --- | --- | --- | --- | --- | --- | --- | --- |
| humanized OKT3 IgG1-aGlyco (antibody) | 7.21 | 0.105 s⁻¹ | 1.71e+06 M⁻¹ s⁻¹ | 2010 | 645 | 66.1 | – | – |
| control human IgG1 antibody (non-specific for CSPG4 or T cells) | – | – | – | – | – | – | 5.1 | 5.15 |
